The nature of the series: soluble on expression in E. coli; label from the status in PepcDB or PDB records.
Consider “MSSEAVAQATAATTSPEHGVPTSSATPTPPPSKGGGAGGGGGGEQQQVPFQMIPPGHFFANPFLNPYIPTAGAPAQEGEAQPQMVFSPAQYQEVMHHYFQQMMAASGAQFPIPFPMQFQPALQQPRPSSQASSSHRSEDDNGRQTAGSVVSSNVSPNHREVRPAEDSTETSGVVQNNDELLVPTSTSSDVTIGDVIEKSDSPENSQESAGGEEKSEEKRKLSGDRTDSLIRKQMSEMEKEITRRSQNKNIKTSGLSYTAPAPPSTEKSAPKESLNQLRSSFNLPDDSTTVGPVGPSTVPQQSQQFANNSMFMANAGNFVQNAFPIGVTMTPQATFGAAPGFQMMQPHQHNLFMQQPNPTFVNNGTNPFLQTQATLPNFVQNGTAPLVPTVSAQQFTPEQLAAAFAQQQIAQSAAPTPFDSPPPSMPSTSSGPSGALAPPPPPSHPIPRRVSGNGWPEENKENGTSTSTTNGAQSVPAAAGTDDPVWVLRDSYLKKMQREQRTSEEEEMSWQEAATAAQEAAENGGGDDQEEQETDRLLNGGTTGASTKGAERRGSVDKKKNSKETMVHEPAVLIEGVLFRARYLGSTQMLCESRGSKAARMAQAQEAVARVKAPEGDVQPSTEIDLFISTEKIMVLNTDLQRISDTDVRQDILMDHALRTISYIADIGDLVVLMARRMSTSHSDESCSDGDSSGGGVRKTPKVICHVFESDEASFIAQSIGQAFQVAYVEFLRANGIDDPSYLRQIDYQEVLNSQELLGDELEMFAKKETQKEVVVPKKAGEPLGIVVVESGWGSMLPTVVLAHMNPVGPAAHSNKLNIGDQIININGISLVGLPLSAAQTQIKNMKTATAVRMTVVSTPPVVEVRIRRPDTKYQLGFSVQNGVICSLLRGGIAERGGIRVGHRIIEINGTSVVAVAHDRIVNMLATAVGEIHMKTMPTSMFRLLTGQEQPQYI”, for which the “soluble on expression in E. coli” value is recorded as “not soluble”.
For “MLSFINKPRMESKMTIPELRELYQTQQLVEAIIEPSFQEGEWIVEFRHQMGGFVLLTDENGEECRYIDLDSASQSAMAVGFRQVRIENQ” the value was “not soluble”.
For “MELQDLELQLEERLLGLEEQLRAVRMPSPFRSSALMGMCGSRSTDNLSCPSPLNVMEPVTELMQEQSYLKSELGLGLGEMGFEIPPGESSESVFSKQRSESSSICSGPSHANRRTGVPSTASVGKSKTPLVARKKVFRASVALTPTAPSRTGSVQTPPDLESSEEVDAAEGAPEVVGPKSESEVEEGHGKLPSMPAAEEMHKNVEQDELQQVIREIKESIVGEIRREIVSGLLAAVSSSKASNSKQDYHLEHHHHHH” the value was “not soluble”; for “MAGHSHWAQIKHKKAKVDAQRGKLFSKLIREIIVATRLGGPNPEFNPRLRTAIEQAKKANMPWENIERAIKKGAGELEGEQFEEVIYEGYAPGGVAVMVLATTDNRNRTTSEVRHVFTKHGGNLGASGCVSYLFERKGYIEVPAKEVSEEELLEKAIEVGAEDVQPGEEVHIIYTVPEELYEVKENLEKLGVPIEKAQITWKPISTVQINDEETAQKVIKLLNALEELDDVQQVIANFEIPEEILQKVG”, “soluble”; for “MGHHHHHHSHALQVDISDALSERDKVKFTVHTKSSLPNFKQNEFSVVRQHEEFIWLHDSFVENEDYAGYIIPPAPPRPDFDASREKLQKLGEGEGSMTKEEFTKMKQELEAEYLAIFKKTVAMHEVFLCRVAAHPILRRDLNFHVFLEYNQDLSVRGKNKKEKLEDFFKNMVKSADGVIVSGVKDVDDFFEHERTFLLEYHNRVKDASAKSDRMTRSHKSAADDYNRIGSSLYALGT”, “not soluble”.
The value for “MAYWLLKSEPQVYGIEDLEREGRAIWDGVRNYQARNYLMQMKEGDLCFFYHSGTTPPGIAGRCRVVRTLLPDPTQFDPESPYYDPKATPEKPRWYTVEVAFVEKWPLVPLAELKALFPPDHPLVKRGNRLSVMPVPPEVAEALIVRRGSR” was “soluble”; that for “MGSDKIHHHHHHLLPKYNILTEDQVQKIHENTMKILEEIGIEFEYEPALEVFRREGQKVEGKRVYLTREFVESKLKSAPAEFTLHARNPENNVVIGGDNIVFMPGYGAPFIYELDGSRRKTTLQDYENFAKLAGASKNMHLSGGTMAEPQDIPDGVRHLQMLYSSIKNSDKCFMGSAEGKERAEDSVEIAAILFGGKDVIKEKPVLVSLINSLTPLKYDERMLGALMAYAEAGQAVIIASLVMAGSTGPASLAGTLSLQNAEVLAGISLAQSINPGTPVIYGSTSALSDMRSGSLSIGSPECALFISASAQLARFYGVPSRSGGGLNDSKTVDAQAGYESMMTLMAANLTGVNFVLHTAGILQYFMAMSYEKFIMDDEIAGMLLHYMKGYTFDEDGMAFDVIEKVGPGGHFLTQKHTRKNHKREFYTPTLSDRSAYDTWAKEKLETKQRAHARWQQILANYVPPALDPEIDAKLQAFIAQRGKEVGEE” was “not soluble”; that for “MGSDKIHHHHHHMGNVASSEVINQLEAWYQAIKRLQLAEATTIKHEVMQAIDGMDQDRKVFLYYHLIDSRYHLLIHQWDYAGAILKGLKAQVELKETDKLLRYYYYFFSGLYEFHTKQYIEAIHFYRLAESLLKDIPDDIEQAEFNYQLAVAYYEIDQHFVSMDHAEKALELYLQNDQYKNRVATTQMIVAANQLDLYQFASAEALYKNAIELASDVQDFFVKGMGYYNLGVCYDRQDKLDLARECFESALYVDLPKSQYQGVMVGTKYMLARVLFKQGILEEGMHWFEEAKALADEMKDASYQAKLSTIHSIYKERDEVEIDDGLRVLKEGKLWSDVFELAINAARHFQEKEDYSLAAKYFDEGLVAKDQIKAWKEDTAST” was “not soluble”.
On to “MSNSRSILSQPEWRIVDQSSLGPTFHALQSFAMDDTLCTSIGKGESAATMRSWVHHNTIVLGIQDSRLPHLEEGISFLKENNFNVIVRNSGGLAVVLDEGVLNVSLLFQETEKGIDIDLGYDTMWHLIQEMLKDYDVTIEAKEIVGSYCPGSYDLSIRDQKFAGISQRRIRGGVAVQIYLCATGSGSERAALVRDFYNLAIQGEETRFTYPEIVPSTMASLSELLDETITVQDLMMRLLKTLQQFAPKLTPSQLTIDEIPLYETNLQRIIDRNNKALGLEK”, for which the “soluble on expression in E. coli” value is recorded as “not soluble”.
The value for “MKFEFRTLVLISLAVVVVLSGCSQSPSSGGVPEYSGSKVYSAPTLYSQLIGVPTEGVSVKAYTVENANAKDILSWYKEKLSDYEIVNEMSVVQMTTPQGSAEWGAILFKKGDKGVGIWAMSGSGVEGGGAVYFIVEGPIDKLTGESGEAGGAGEQLPASDQASGEEPVKRYPGSVMLSYYKDTSNPLEVSIGIDYGTEDSAEKVAHWYKQELQAEGWVLESESSDDSSIDLAFSRGKEYIDIYIIEPYEGFLTRKLTSTTGRRGCHLTTWSVERSRWRGIPAQLCWNT” was “not soluble”.
The value for “MYRISQLAELVGLSRTTLLYYEKLGLIKGERLNNGYRQYSEKDAQRLVLLQNLQAGGLTLKECQACLDAKVNREVLVERLEQLDQEIEQKQNSRQLLAALLGESSLTDWHESLDQLAPEAHIEWLMKQGFDEKQAMRLKWLSKDMNEHERYMQDFDLIFKELERWGPGSESDTLKALQKVPNKSMTLLEIGCGQGIATELFARHTDAMITAVDNEEFALKHLMEKMQQNGLEDKITTVCADMAKMPFETKSFDLIWSEGSAYIMGVQNALKAWKPLLSEDGVLVVSDLVWSTDKPSEGALSFWKKEYPDMVSVSERIKHAQQAGYEVIEHFSLSDAAWEAYYHPLIERLDTLKDKLIDSPVLIDFENEITAFKQRANEFDYEIFILRSR” was “not soluble”; that for “MGSDKIHHHHHHFACKEETDLYFNGDITVIKSFDNDTLLSPVKVELEDIYDGSVLAYDSLLFFTSHKYSDCWMYVFSVNSGKHIASLCPKGQGPNDYLSCKNSQQFIRENGELKLWVRDNAKSARLLNITKSIETGATVCDAIIPMDWNKYFVYPATTLFFLKDGYILGQNQCEEQYSKGKEYIPRKFYLYKDSLGNKVKEYKLFNRPVILKDDKYDVLSGMFYANHSYIHPDQTKVAIAMQRVAQITILDVKSGKQVGYRMDDTLDFSDIEQNLECIRYYYTSAAVNSRYIFALYIDQAEMGGKYPFKSKTVHVFNWEGRPVYKIQLDKEISWITLDPQNNRLYAQGEDDSIWAYDVSWLSK” was “not soluble”; that for “MLYLHDIWVNWFEGEENGYNVCHFHEWRKDDQIELLDQVPLLKVSPALFHYIENSLSDLPKPLLDDVHQKAYVRKNHERIQLDYCFVVTDGAGVLAVDTIGYQIPIRKSRLIPRQEQLVYEMAAEAEERDYPLPRYEKEYHILSPAPELMCGLTRKERQLKQLLFMALDQLYSTKNTAQMRYWYTEWAPEKYAAIQKMSFDEAWEQLYNETKYGWSERHEQLCENLIKGQPFFEKLWEMEQEPKVN” was “soluble”.
The value for “MPLGLFSSGKAQVLCDEKIPGGKKKEPKQLSENKCKGVTLKLDHTRVTIEKQIAEGGFAIVYVASDRKNNKFALKRQFTKDNEKQLEACCREHSFLKQCIGHKNIVEFVDSYTNCLGNGIWECMLLTEYHQKNVLQLMNERISQNQYLTNDEILSIFTDLCEAVSFIHNRPQPIIHRDLKVENVLISSHKPPHYVLCDFGSATTQILSVEKYGVEYVKSEVERNTTMCYRSPEMIDFYSGLEIGLKSDIWALGVLLYRLCFFCVPFEESPLAIQSVNYQFPSVPNIPDEIKVLIYMLLDIDVNRRPSIYQTSVLAFEANHRKPLSEEIQNKKCTDAVPSLKSCIQLMRDGSNPRNKRDSSPRNPEAPPIQSSSKMASLSQQVPSISNISMPSGSGTVETSVAPRLRPKATTVVPNVPSISPVPPVGLPHLRLPSKGSTDETDGSQVRKVPIDFHHRQSFSGEEQLKPAAEADSAGPLSCPLIKPTDLGFTDLDKPALPRDRAQTDGKRRLPHESDIIFQQQHRRNVSDTSQISRSAFKPYSSQQTTSKTSSQVVRSVEDMSQRQNGGSGEWNPFLVAPFSNNSISRKDGQESAFMMDDSHFGMVFDEIRRKEIPAELDSETSSIDSRDPFGAAPFDQLTVSTSSSAQPVSLPPGSVHLHTSIAPSPLLRHVLTKAPPPVPRRTTSRGFQV” was “not soluble”; that for “MGSDKIHHHHHHMDNLLSIKSLCDEDIDFVTEISRKEGFAPGVGDLRIYQNTDKQGLWVGWLDNNPIGCIAGVRYNQYYGFLGLFLVIEEYRGRGFGLQLWKKALSHLSDLPCVGLEAAPERITDYSKWGFTISSKTTRWQLLGDGKLVEEYSKNDDFDDFSFVEGSSIPQDAVKKFDEKRETTPRPHFLSNWLNHPAGKVIAVIDKKNCCHGFGRIRPCLLQNGDGWRIGPLMADTPMLLQILLKKLIESHPGLIIIDAPGLNKSASEVFRKLGFKSESETFRMYRGSQPPVSMNDVYGLACLELG” was “not soluble”.
As to “LNKTVKHMWPFICQFIEKLFRETIEPAVRGANTHLSTFSFTKVDVGQQPLRINGVKVYTENVDKRQIILDLQISFVGNCEIDLEIKRYFCRAGVKSIQIHGTMRVILEPLIGDMPLVGALSIFFLRKPLLEINWTGLTNLLDVPGLNGLSDTIILDIISNYLVLPNRITVPLVSEVQIAQLRFPVPKGVLRIHFIEAQDLQGKDTYLKGLVKGKSDPYGIIRVGNQIFQSRVIKENLSPKWNEVYEALVYEHPGQELEIELFDEDPDKDDFLGSLMIDLIEVEKERLLDEWFTLDEVPKGKLHLRLEWLTLMPNASNLDKVLTDIKADKDQANDGLSSALLILYLDSARNLPSGKKISSNPNPVVQMSVGHKAQESKIRYKTNEPVWEENFTFFIHNPKRQDLEVEVRDEQHQCSLGNLKVPLSQLLTSEDMTVSQRFQLSNSGPNSTIKMKIALRVLHLEKRERPPDHQHSAQVKRPSVSKEGRKTSIKSHMSGSPGPGGSNTAPSTPVIGGSDKPGMEEKAQPPEAGPQGLHDLGRSSSSLLASPGHISVKEPTPSIASDISLPIATQELRQRLRQLENGTTLGQSPLGQIQLTIRHSSQRNKLIVVVHACRNLIAFSEDGSDPYVRMYLLPDKRRSGRRKTHVSKKTLNPVFDQSFDFSVSLPEVQRRTLDVAVKNSGGFLSKDKGLLGKVLVALASEELAKGWTQWYDLTEDGTRPQAMT”, the “soluble on expression in E. coli” value is “soluble”.
The value for “MNTRSSLSEEQREQLVGLCEQDLDFTTTASRIGGRHTLARSLYHCWLLHGRLCLVEKPTKKHYSFEIKKEVVDRFLAGETRMNLAKEFKLSSPQQVKDWVSKWHKRR” was “not soluble”.
